For the assay, the target named is T1, Fas receptor on 661W photoreceptor cells (UniProt P25446 22-327, limits assumed).
T1 sequence (looked up): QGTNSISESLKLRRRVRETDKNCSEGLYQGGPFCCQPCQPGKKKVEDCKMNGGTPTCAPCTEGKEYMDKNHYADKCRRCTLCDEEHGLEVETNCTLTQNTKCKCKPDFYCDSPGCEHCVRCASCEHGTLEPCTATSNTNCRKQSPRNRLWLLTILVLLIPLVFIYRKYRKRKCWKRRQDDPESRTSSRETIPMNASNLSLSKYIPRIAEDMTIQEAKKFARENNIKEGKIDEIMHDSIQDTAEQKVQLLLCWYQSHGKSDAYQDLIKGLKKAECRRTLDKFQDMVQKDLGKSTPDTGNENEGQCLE
The assay can be described thus: cell-based or functional assay.

No end group written: not given here.

Turning to “human recombinant FasL (from UniProt P48023 134-281) (ligand)”, the caspase 8 activity in 661W cell lysates (dose of peak activity) came to 500 ng/mL and the increase of caspase 8 activity in 661W cells lay in the range of 20 to 30%.

Turning to HHIYLGAVNYIY (also: trihydrochloride salt) [Met-12 (HHIYLGAVNYIY)], the “EC50, inhibition of FasL-induced caspase 8 activation in 661W cells” value came to 4 µM.

As to HHIYLGAVNYIY-NH2 (also: trihydrochloride salt) [Compound 1 (His-His-Ile-Tyr-Leu-Gly-Ala-Val-Asn-Tyr-Ile-Tyr-NH2), C-terminal amide of Met-12], the “EC50, inhibition of FasL-induced caspase 8 activation in 661W cells” value was 0.4 µM; the “fold potency against Met-12 by IC50 determination” value turned out to be 10 fold; the “fold potency against Met-12 by the concentration of maximal inhibition” value was approximately 3 fold.

(Values after patent US20190201500A1 (ONL THERAPEUTICS, published 2019).)
